B1: PfolEB (dsDNA)
DNA 1: ACCGATCAAAATAAATAGTAATTATTACGATTTGTTAGTGAGAGG
DNA 2: CCTCTCACTAACAAATCGTAATAATTACTATTTATTTTGATCGGT
B2: PzinT (dsDNA)
DNA 1: ATGTATGTATAATAAATCGTAATGTTTTCGATTTAATAAAAAAGG
DNA 2: CCTTTTTTATTAAATCGAAAACATTACGATTTATTATACATACAT
B3: PznuA (dsDNA)
DNA 1: ATTTATTCTTGCAAAACGTAATGACTTCGGTTTATTATGATATAG
DNA 2: CTATATCATAATAAACCGAAGTCATTACGTTTTGCAAGAATAAAT
B4: PrpmEB (dsDNA)
DNA 1: GTAAGGTTATAAAATAAAACGTAATTATTACGATTTATTGAAAGG
DNA 2: CCTTTCAATAAATCGTAATAATTACGTTTTATTTTATAACCTTAC
B5: PrpsNB (dsDNA)
DNA 1: GAATGATACATTTTAAATCGTAACAATTTCGATTTAAAGGGAGGC
DNA 2: GCCTCCCTTTAAATCGAAATTGTTACGATTTAAAATGTATCATTC
B6: PyciC (dsDNA)
DNA 1: ACCATACAATTTAAGTCGTAACAATTACGTTTTATGATAAATGGC
DNA 2: GCCATTTATCATAAAACGTAATTGTTACGACTTAAATTGTATGGT

One data set addresses Zur H124A (Bacillus subtilis, UniProt P54479 1-145, H124A). Description: EMSA; 0.1 uM ZnSO4; 20 mM Tris-HCl pH 6.4, 50 mM KCl, 1 mM DTT, 0.1 mg/ml BSA, 5% glycerol, 0.1 ug poly(dI-dC) in 20 ul, 0.1 uM ZnSO4; room temperature 20 min; gel at 4 C in TA pH. To be noted: protein: recombinant; tags: none stated; chain copies: 2; label: 5'-32P; blunt.
Regarding B1, the equilibrium dissociation constant (Kd) turned out to be 100 ± 4 nM.

For the molecule B2, the Kd was found to be 96 ± 1.3 nM.

As to B3, the Kd was found to be 110 ± 3 nM.

For the molecule B4, the Kd stood at 101 ± 2.3 nM.

In the case of B5, the Kd was 99 ± 1.6 nM.

For B6, the Kd came to 129 ± 3.8 nM.

A further data set deals with Zur WT (BsZur) (Bacillus subtilis, UniProt P54479 1-145). Described as above. To be noted: protein: recombinant; tags: none stated; chain copies: 2; label: 5'-32P; blunt.
On to B1, for which the equilibrium dissociation constant (Kd) amounted to 21.9 ± 3.9 nM.

Consider B2, for which the equilibrium dissociation constant (Kd) was 15.6 ± 3.5 nM.

Consider B3, for which the Kd was determined as 12.5 ± 4 nM.

For B4, the Kd was determined as 14.3 ± 2.6 nM.

Consider B5, for which the Kd is 14.3 ± 2.5 nM.

Regarding B6, the Kd amounted to 25.4 ± 1.1 nM.

The target of the next data set is Zur C84S (Bacillus subtilis, UniProt P54479 1-145, C84S). Described as above. The note with it: protein: recombinant; tags: none stated; chain copies: 2; label: 5'-32P; blunt.
In the case of B1, the Kd was determined as 28.6 ± 2.5 nM.

As for B2, the Kd came to 75.5 ± 5.3 nM.

For B3, the Kd worked out at 73 ± 2 nM.

As for B4, the Kd was found to be 77.9 ± 4 nM.

For the molecule B5, the Kd was 16.5 ± 2.5 nM.

Take B6: the Kd came out at 80.6 ± 3.2 nM.
